What was measured:
MS2 coat protein = assay: apparent KD of MS2 coat protein; higher = weaker reporter binding; settings: Eterna round: R107
Description: (§1)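 RNA-MaP round R107: designed RNA switches with theophylline, tryptophan, arginine or FMN aptamers are transcribed on-chip within common flanks. They are titrated with SNAP-549-labelled MS2 coat protein in RNA-MaP buffer (100 mM Tris pH 7.5, 80 mM KCl, 4 mM MgCl2), without ligand or with the indicated ligand. Median apparent KD per design.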

[1] = system: K4 kissing-loop RNA reporter; assay: apparent KD of K4 kissing-loop reporter; higher = weaker reporter binding; settings: Eterna round: R107;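 note: bound reporter read as fluorescence of individual clusters on recovered sequencing chips by microscopy, with normalized cluster intensities fitted with a binding model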
Description: as §1, with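 “a labelled K4 kissing-loop RNA reporter” for “SNAP-549-labelled MS2 coat protein”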

[2] = input ligand: theophylline 20 uM
[3] = input ligand: theophylline 2 mM
[4] = input ligand: tryptophan 2.4 mM

Sequence | apparent KD of MS2 coat protein (MS2 coat protein; input ligand: arginine 13.2 mM) [nM] | apparent KD of MS2 coat protein (MS2 coat protein; [2]) [nM] | apparent KD of MS2 coat protein (MS2 coat protein; [3]) [nM] | apparent KD of MS2 coat protein (MS2 coat protein; [4]) [nM] | apparent KD of MS2 coat protein (MS2 coat protein; input ligand: none) [nM] | apparent KD of K4 kissing-loop reporter ([1]; input ligand: FMN 200 uM) [nM] | apparent KD of K4 kissing-loop reporter ([1]; input ligand: arginine 13.2 mM) [nM] | apparent KD of K4 kissing-loop reporter ([1]; input ligand: none) [nM] | apparent KD of K4 kissing-loop reporter [1, 2] [nM] | apparent KD of K4 kissing-loop reporter [1, 4] [nM]
AAAACAUGAGGAUCACCCAUGUACAUGGGUCGAGGACCGGUACGGCCGCCACUCGCCGCCCGCCCGCCCGCCACCUCUCCCGCCC | 34.7 | 173 | 160 | – | – | – | – | – | – | –
AAAACGCAACUCGAUACCAGUACACUGAGUCUUCGCCACGACAUGAGGAUCACCCAUGUGUACCCUUGGCAGCGACAGAGCCACA [theeternabot_exclusion_MS2_Theo_B_42] | 43.4 | 84.9 | – | 57.7 | – | – | – | – | – | –
AAAAUCCUACCUGAGGAUCACCCAGGUGAAGGAGCGCCCGAAAGGGCAGGUAGGUCGCACCUGAGGAUCACCCUGGUAACCUAAA [ArgEX 11 #DoubleMS2 #OpenEnded #AlternativeMS2] | 28.1 | 69 | 51.7 | 38.6 | 48 | – | – | – | – | –
AAAAUCCUACCUGAGGAUCACCCUGGUGAAGGAGCGCCCGAAAGGGCAGGUAGGUCGCACCUGAGGAUCACCCAGGUAACCUAAA [ArgEX 13 #DoubleMS2 #OpenEnded #AlternativeMS2] | 31.7 | 40.7 | 44.1 | 47 | 49.2 | – | – | – | – | –
AAAAUCCUACCUGAGGAUCACCCUGGUGAAGGAGCGCCCGAAAGGGCAGGUAGGUCGCACCUGAGGAUCACCCUGGUAAACCUAA [ArgEX 24 #DoubleMS2 #OpenEnded] | 31.6 | 40.3 | 44.9 | 46.3 | 51.4 | – | – | – | – | –
AAACAUUGCUCAGAUACCAGACAUGAGGAUCACCCAUGUACCAAGGUACCCGAAAGGAAUGUCCCUUGGCAGCUGAGCAAUGAAA [MAT - Exclusion Theophlline B - Mod of Eli - D20] | 10.9 | 11.9 | – | 9.51 | – | – | – | – | – | –
AAACGCCACGGAAGGAGCGACAUGAGGAUCACCCAUGUAGACGUGGCGGAUGCACCCUCCUGUCAGGUAGGUCGCCGUGCGCCAA [Engebite] | 10.9 | 15.5 | 12.2 | 11.2 | 11 | – | – | – | – | –
AAACGCUAUGCGGCCGCCACUAAGGUUGGCGUCUAUGUCGUUUAAGACAUGAGGAUCACCCAUGUUAGGACCGGGCAUGUCCGCG [theeternabot_exclusion_MS2_Trp_B_25] | 19.1 | 22.9 | 22.4 | – | – | – | – | – | – | –
AAACUGGGUGUAAAAUAAAUAAUCACUGAUACCAGACUAUAGUAUGUCCCUUGGCAGCAGAAACAUGAGGAUCACCCAUGUAAUA [JR_Nu_ExcTheophyA_Sub024] | 22.3 | 23 | – | 25.2 | – | – | – | – | – | –
AAACUGGGUGUAAAAUAAAUAAUCACUGAUACCAGACUAUGAGAUGUCCCUUGGCAGCAGAAACAUGAGGAUCACCCAUGUAAUA [JR_Nu_ExcTheophyA_Sub026] | 19.6 | 24.5 | – | 25.2 | – | – | – | – | – | –
AAAGAUACCAGAGAUACCAGCCAAAAUUAAAAUAAAACCUCACAUGAGGAUCACCCAUGUGGCCCUUGGCAGCUCCCUUGGCAGC [#DoubbleAptamer 1] | 13.1 | 15.5 | – | 12.5 | – | – | – | – | – | –
AAAGGAAGGUAAAAUAAAACUACAUGUGAAGGAGCGCGCGAAAGCGCAGGUAGGUCGCACAUGAGGAUCACCCAUGUCCUUCCAA [MAT - Exclusion Arginine A - Mod of Eli - D4] | 112 | 181 | 129 | 96.8 | 104 | – | – | – | – | –
UUGUUUUACUGAAGGAGCGGCAAUUGAUACGUAGAUAUAGUGAUGUUAUAUAAGAUAGAGAGCCAGGUAGGUCGCAGAGGUGUUU [ExArgB.S] | – | – | – | – | – | 176 | 150 | 210 | 180 | 168
UUUAAACAUAGUGAUGUUAUGUAACAGUGACGAGGACCGGUACGGCCGCCACUCGAGAGAGAUAGUGGUCAUGCAAAUGUAUGCC [#16 K4 Tryptophan A Same State] | – | – | – | – | – | 145 | 167 | 123 | 136 | 137
UUUAAAUAUAGUGAUGUUAUAUAACAAUGACGAGGACCGGUACGGCCGCCACUCGAGAGAGAUAAUGGUAAAAUAAAUAAUUUUC [AstrosSSTryA#3] | – | – | – | – | – | 395 | 585 | 709 | 783 | 389
UUUAACGAGUGAUGUUCGAAGAGUAAGGGUGAGGAUAUCGAUUUUUCGAGAAGGCGCCUCGAAGUGAUACGAAAGUAUCGCUUCG [FMN A 7] | – | – | – | – | – | 246 | 224 | 269 | 269 | 215
UUUAUAAAGUCGGCCGCCACUGGAUUUAUAUUUGUUUCGUCUGGAUCAAAGUGAUGUUUUGAGUCCAGGACCGGGACAUUUGUUA [whbob_Ex_Tryp_B_w37] | – | – | – | – | – | 80.7 | 71.1 | 74.6 | 69.1 | 93.2
UUUAUAAAGUCGGCCGCCACUGGUUUUAUUUUUGUUUAAUCUGGAUCAUAGUGAUGUUAUGAGACCAGGACCGGGACAUUUGUUA [#08 K4 Tryptophan B Exclusion] | – | – | – | – | – | 89.5 | 86 | 88.2 | 93.8 | 132
UUUAUAGUGACGGCCGCCACUAUAUUAAUGUUUAGGUUAGAGUGAUGUUUUGAUUAAUAUUUUUAUAGGACCGGGUUAUAUGUUU [ggbvmullin] | – | – | – | – | – | 669 | 488 | 632 | 515 | 591
UUUAUAUAGUCGGCCGCCACUGAUUUUUAUAUAUGUUUAUGUUUAUACGAGUGAUGUUCGAUAUACAGGACCGGGACUUUUGUUA [JR_SSTryptoB_Sub017] | – | – | – | – | – | 268 | 291 | 294 | 306 | 207
